Measurements from patent US12139520B2 (priority 2020, dated 2024).
Numbering of substitutions follows the chain as printed. Numbered stars: 1 amine (or outer) side, 2 acyl side, 3 side chain; on linkers, the order of the positions; unused ones are H or OH. Bridge positions count the residues as written; N and C are the ends. Square brackets hold non-standard residues; d marks the D form. Side chains are listed from the residue outwards. Ends that are not written are not given here. * marks the point of attachment. C20 diacid = O=C(O)CCCCCCCCCCCCCCCCCCC(=O)*; γGlu = O=C(O)[C@H](CCC(=O)[*:2])N[*:1]; Hyp = O=C(O)[C@@H]1C[C@@H](O)CN1; NMeI = CC[C@H](C)[C@H](NC)C(=O)O; Aad = N[C@@H](CCCC(=O)O)C(=O)O; AEEA = NCCOCCOCC(=O)O; Sar = CNCC(=O)O

B1: SEQ ID NO: 5 (peptide)
peptide: {C20 diacid-γGlu}-KCNTATCTVQRLADQIYQFTDKDKDNVAPPTNVGSNG[Hyp]-NH2
modifications: disulfide 2-7 (inferred); ends not checked
B2: SEQ ID NO: 50 (peptide)
peptide: {C20 diacid-γGlu}-KCNTSTCTVQRLAHQIYQFTDKDKDNVAPPTNVGSNG[Hyp]-NH2
modifications: disulfide 2-7 (inferred); ends not checked
B3: SEQ ID NO: 51 (peptide)
peptide: {C20 diacid-γGlu}-KCNTATCTVQRLAEQIYQFTDKDKDNVAPPTNVGSNG[Hyp]-NH2
modifications: disulfide 2-7 (inferred); ends not checked
B4: SEQ ID NO: 52 (peptide)
peptide: KCNTATCTVQRLAHQIYQFTDKDKDAVAPPTNVGSNG[Hyp]-NH2
modifications: disulfide 2-7 (inferred); ends not checked
B5: SEQ ID NO: 53 (peptide)
peptide: KCNTATCTVQRLAHQIYQFTDKDKDNVAAPTNVGSNG[Hyp]-NH2
modifications: disulfide 2-7 (inferred); ends not checked
B6: SEQ ID NO: 54 (peptide)
peptide: GCRFGTCTVQRLAHFLYQFTDKDKDNVAPRTNVGPQGY
B7: SEQ ID NO: 55 (peptide)
peptide: {C20 diacid-γGlu}-KCNTATCTVERLAHQIYQFTDKDKDNVAPPTNVGSNG[Hyp]-NH2
modifications: disulfide 2-7 (inferred); ends not checked
B8: SEQ ID NO: 6 (peptide)
peptide: KCNTATCTVQRLAEQIYQFTDKDKDNVAPPTNVGSK([AEEA-AEEA-γGlu-C20 diacid])G[Hyp]-NH2
modifications: disulfide 2-7 (inferred); ends not checked
B9: SEQ ID NO: 56 (peptide)
peptide: B6 peptide with P35S, Q36N, G37T
B10: SEQ ID NO: 57 (peptide)
peptide: {C20 diacid-γGlu}-KCNTATCTVQRLAHQIYQFSDKDKDNVAPPTNVGSNG[Hyp]-NH2
modifications: disulfide 2-7 (inferred); ends not checked
B11: SEQ ID NO: 58 (peptide)
peptide: KCNTATCATQRLANFLVHSSNNFGAILSSTKVGSNTY
B12: SEQ ID NO: 59 (peptide)
peptide: B11 peptide with S28P, T36G
B13: SEQ ID NO: 60 (peptide)
peptide: {C20 diacid-γGlu}-KCNTATCTVQRLAHQIYQFTDKDKDNVAPPTKVGSNG[Hyp]-NH2
modifications: disulfide 2-7 (inferred); not fully specified; ends not checked
B14: SEQ ID NO: 61 (peptide)
peptide: {C20 diacid-γGlu}-KCNTATCTVQRLAHQIAQFTDKDKDNVAPPTNVGSNG[Hyp]-NH2
modifications: disulfide 2-7 (inferred); not fully specified; ends not checked
B15: SEQ ID NO: 62 (peptide)
peptide: {C20 diacid-γGlu}-KCNTSTCTVQRLAHQIAQFTDKDKDNVAPPTNVGSNG[Hyp]-NH2
modifications: disulfide 2-7 (inferred); not fully specified; ends not checked
B16: SEQ ID NO: 63 (peptide)
peptide: {C20 diacid-γGlu}-KCNTATCTVQRLAEQIYQFTDKDKDNVAPPTAVGSNG[Hyp]-NH2
modifications: disulfide 2-7 (inferred); not fully specified; ends not checked
B17: SEQ ID NO: 64 (peptide)
peptide: KCNTATCTVQRLAHQIYQFTDADKDNVAPPTNVGSNG[Hyp]-NH2
modifications: disulfide 2-7 (inferred); ends not checked
B18: SEQ ID NO: 65 (peptide)
peptide: KCNTATCTVQRLAHQIYQFDKDKDNVAPPTNVGSNG[Hyp]-NH2
modifications: disulfide 2-7 (inferred); ends not checked
B19: SEQ ID NO: 7 (peptide)
peptide: KCNTATCTVQRLAAQIYQFTDKDKDNVAPPTNVGSNG[Hyp]-NH2
modifications: disulfide 2-7 (inferred); ends not checked
B20: SEQ ID NO: 66 (peptide)
peptide: KCNTATCTVQRLAEQIYQFTDKDKDNVSPPTNVGSNG[Hyp]-NH2
modifications: disulfide 2-7 (inferred); ends not checked
B21: SEQ ID NO: 67 (peptide)
peptide: {C20 diacid-γGlu}-KCNFATCTVQRLAHQIYQFTDKDKDNVAPRTEVGSNG[Hyp]-NH2
modifications: disulfide 2-7 (inferred); not fully specified; ends not checked
B22: SEQ ID NO: 68 (peptide)
peptide: {C20 diacid-γGlu}-KCNFATCTVQRLAHQIYQFTDKDKDNVAPPTEVGSNG[Hyp]-NH2
modifications: disulfide 2-7 (inferred); not fully specified; ends not checked
B23: SEQ ID NO: 69 (peptide)
peptide: {C20 diacid-γGlu}-KCNTATCTVQRLAHQIAQFTDKDKDNVAPPTNVGSNS[Hyp]-NH2
modifications: disulfide 2-7 (inferred); not fully specified; ends not checked
B24: SEQ ID NO: 70 (peptide)
peptide: GCRFGTCTVQRLAHQIYQFTDKDKDNVAPRTNVGPQG[Hyp]-NH2
modifications: disulfide 2-7 (inferred); ends not checked
B25: SEQ ID NO: 71 (peptide)
peptide: {C20 diacid-γGlu}-KCNTATCTVQRLAHQIAQYTDKDKDNVAPPTNVGSNG[Hyp]-NH2
modifications: disulfide 2-7 (inferred); not fully specified; ends not checked
B26: SEQ ID NO: 72 (peptide)
peptide: KCQTATCTVQRLAEQIYQFTDKDKDNVAPPTNVGSNGX
modifications: not fully specified; C20DA-yGlu at N-terminal; Hyp at X38
B27: SEQ ID NO: 73 (peptide)
peptide: {C20 diacid-γGlu}-KCNTATCTVQRLAEQIYQFTDKDKDNVAPPTQVGSNG[Hyp]-NH2
modifications: disulfide 2-7 (inferred); not fully specified; ends not checked
B28: SEQ ID NO: 74 (peptide)
peptide: KCNTATCTVQRLAK([AEEA-AEEA-γGlu-C20 diacid])QIYQFTDKDKDNVAPPTNVGSNG[Hyp]-NH2
modifications: disulfide 2-7 (inferred); not fully specified; ends not checked
B29: SEQ ID NO: 75 (peptide)
peptide: KCNTATCTVQRLAHQIYQFTDKDKDNVAPPTNVGSNG[Hyp]-NH2
modifications: disulfide 2-7 (inferred); ends not checked
B30: SEQ ID NO: 8 (peptide)
peptide: KCNTSTCTVARLADQITQFSNKDKAQVSPPTEVGPNS[Hyp]-NH2
modifications: disulfide 2-7 (inferred); ends not checked
B31: SEQ ID NO: 76 (peptide)
peptide: {C20 diacid-γGlu}-RCGTATCATERLA[Aad]FLQRSSF[Sar]A[NMeI]LSSTEVGSNT[Hyp]-NH2
modifications: disulfide 2-7 (inferred); not fully specified; ends not checked

molecular target: hAM1R (human, UniProt Q16602); test: cell-based or functional assay

| Binder | hAM1R EC50 (cAMP) [µM] |
| --- | --- |
| B1 | > 5 |
| B2 | > 5 |
| B3 | > 5 |
| B4 | > 5 |
| B5 | > 5 |
| B6 | 0.0462 |
| B7 | 0.0638 |
| B8 | > 5 |
| B9 | 0.103 |
| B10 | 0.59 |
| B11 | > 5 |
| B12 | > 5 |
| B13 | > 5 |
| B14 | > 5 |
| B15 | > 5 |
| B16 | > 5 |

| Binder | hAM1R EC50 (cAMP) [µM] |
| --- | --- |
| B17 | > 5 |
| B18 | > 5 |
| B19 | > 5 |
| B20 | > 5 |
| B21 | 0.116 |
| B22 | 0.255 |
| B23 | 0.68 |
| B24 | 2.98 |
| B25 | > 5 |
| B26 | > 5 |
| B27 | > 5 |
| B28 | > 5 |
| B29 | > 5 |
| B30 | > 5 |
| B31 | > 5 |

molecular target: T1, hAMY3R (human, UniProt P30988); test: cell-based or functional assay
T1 sequence 1: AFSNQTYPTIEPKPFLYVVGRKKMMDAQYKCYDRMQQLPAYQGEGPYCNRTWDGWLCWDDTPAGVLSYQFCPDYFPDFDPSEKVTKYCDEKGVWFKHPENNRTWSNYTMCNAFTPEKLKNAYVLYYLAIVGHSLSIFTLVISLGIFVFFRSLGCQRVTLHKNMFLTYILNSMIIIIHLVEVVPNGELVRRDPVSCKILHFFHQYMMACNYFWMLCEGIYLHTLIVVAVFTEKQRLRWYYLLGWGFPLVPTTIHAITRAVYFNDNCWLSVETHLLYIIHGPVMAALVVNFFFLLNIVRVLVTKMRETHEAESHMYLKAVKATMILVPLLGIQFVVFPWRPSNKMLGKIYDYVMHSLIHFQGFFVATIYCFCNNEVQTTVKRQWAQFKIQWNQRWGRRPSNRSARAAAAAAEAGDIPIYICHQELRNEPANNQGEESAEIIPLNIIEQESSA
T1 sequence 2: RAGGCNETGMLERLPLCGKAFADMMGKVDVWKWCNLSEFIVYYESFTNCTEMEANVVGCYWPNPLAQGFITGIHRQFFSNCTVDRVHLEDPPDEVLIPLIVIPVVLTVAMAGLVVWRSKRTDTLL

| Binder | hAMY3R EC50 (cAMP) [nM] |
| --- | --- |
| B1 | 0.006 |
| B2 | 0.011 |
| B3 | 0.011 |
| B4 | 0.011 |
| B5 | 0.011 |
| B6 | 0.012 |
| B7 | 0.012 |
| B8 | 0.006 |
| B9 | 0.012 |
| B10 | 0.012 |
| B11 | 0.012 |
| B12 | 0.012 |
| B13 | 0.012 |
| B14 | 0.012 |
| B15 | 0.012 |
| B16 | 0.012 |

| Binder | hAMY3R EC50 (cAMP) [nM] |
| --- | --- |
| B17 | 0.012 |
| B18 | 0.012 |
| B19 | 0.006 |
| B20 | 0.012 |
| B21 | 0.013 |
| B22 | 0.013 |
| B23 | 0.013 |
| B24 | 0.013 |
| B25 | 0.013 |
| B26 | 0.013 |
| B27 | 0.013 |
| B28 | 0.013 |
| B29 | 0.013 |
| B30 | 0.006 |
| B31 | 0.014 |
